Data reported in paper PMC9412841 (ACS Applied Materials & Interfaces, 2022).

Tests used:
[1] = Differential scanning calorimetry, melting temperature of insulin; format: physicochemical; conditions: DSC; insulin 10 mg/mL in 10 mM HCl; pTrMA 5 mol equiv or trehalose 50 mg/mL
Description: In addition, differential scanning calorimetry was undertaken to study the melting temperature of the insulin. […] Thus, it is unlikely that the change in melting temperature is a significant factor in protein stabilization.

[2] = C57HL/6 mice, 72 h; cited from earlier work
Description: In the final time points of the extended μPET/μCT experiment, the signal in the liver still appeared to be going down, while the study co ...

[3] = μPET/μCT stability study of ^64Cu-labeled pTrMA-co-DOTA (fresh, plasma-incubated, free ^64CuCl2); format: in vivo, C57BL/6 mice; conditions: female mice, n = 4, i.v., fresh 200 μCi, plasma-incubated (37 °C, 24 h) 100 μCi, ^64CuCl2 100 μCi, mean ± SEM
Experimental: To determine if organ signal attenuation was occurring because ^64Cu was released from pTrMA-co-DOTA in vivo due to insufficiently strong DOTA chelation, the stability of the radiolabeled polymer as well as the biodistribution and excretion of free ^64Cu was investigated by further μPET/μCT imaging. Mice (female, n = 4) were i.v. injected with the fresh ^64Cu-labeled pTrMA-co-DOTA (200 μCi), ^64Cu-pTrMA-co-DOTA after incubating in plasma at 37 °C for 24 h (100 μCi), and free ^64CuCl2 (100 μCi). […] If ^64Cu was readily leached from the DOTA group when incubated in plasma, the shifting biodistribution in the organs with time would have been the same as with the mice exposed to free ^64CuCl2. […]
Figure 6 Time course biodistribution and excretion of fresh ^64Cu-labeled pTrMA-co-DOTA (blue), plasma-incubated ^64Cu-labeled pTrMA-co-DOTA (red), and free ^64CuCl2 (green) from the organs (a) brain, (b) heart, (c) liver, (d) left kidney, (e) right kidney, (f) bladder, (g) muscle, (h) left lung, (i) right lung, (j) spleen, and (k) intestine of female (n = 4) mice. […] Data were quantified from μPET images.
^64Cu-radiolabeled pTrMA-co-DOTA was incubated in plasma collected from a female C57BL/6 mouse at 37 °C for 24 h. […] Co-registered μPET/μCT images were analyzed, and MIPs were generated using AMIDE software.

[4] = Accelerated heating assay of insulin (90 °C, 30 min), HPLC and PAGE; format: physicochemical; conditions: DPBS pH 7.4, insulin 1 mg/mL final, pTrMA 28.1 kDa 2 mol equiv, 0.22 μm filtered, RP-HPLC, n = 3
Experimental: The formulations were heated to 90 °C for 30 min. […] The heated samples were also investigated by native polyacrylate gel electrophoresis (PAGE) for changes to MW or isoelectric point for evidence of chemical changes or aggregate formation (Figure 8b).
For all *p < 0.05, **p < 0.01, and ***p < 0.001.
(§1) The samples were stored at 4 °C or heated to 90 °C for 30 min in ambient light. Aliquots of each insulin sample were used directly for SDS and native PAGE as well as ThT assay. […] ThT was prepared at 50 μM (0.0159 mg/mL) in 20 mM DPBS pH 7.4. Into a black 96-well plate, 50 μL of each sample was pipetted. To these was added 250 μL of ThT solution, and the plate was incubated at room temperature (21 °C) for 20 min. Fluorescence intensity was measured on a Tecan M1000 plate reader (λex = 450 nm, λem = 482 nm).

[5] = SEC-MALS oligomerization state of insulin; format: physicochemical; conditions: insulin 30 mg/mL, 0.1 M PBS pH 7.4; pTrMA 26.0 kDa 30 mg/mL; fresh or heated 90 °C 30 min
[6] = Long-term insulin stability at 4 °C, RP-HPLC; format: physicochemical
Experimental: To study relevant storage, the formulations were kept at a standard refrigeration temperature at 4 °C for 46 weeks.
The samples were stored at 4 °C for […], followed by regular sampling.

[7] = Thioflavin T (ThT) fibrillation assay; format: physicochemical; conditions: 90 °C, 30 min; ThT 50 μM, 20 min at 21 °C; λex 450 nm, λem 482 nm; n = 3
Experimental: as §1, with “In addition, differential scanning calorimetry was undertaken to study the melting temperature of the insulin. […] Thus, it is unlikely that the change in melting temperature is a significant factor in protein stabilization. […] The” for “The”

[8] = test system: IgG and IgM antibodies specific to OVA or pTrMA; test: Antibody immunogenicity study, IgG and IgM immune ELISA of serum; format: in vivo; conditions: female CD-1 mice, n = 5–6; i.p. at weeks 0 and 2; OVA 2 mg/kg, pTrMA 10 wt %; serum weeks 1-3; ELISA vs naïve serum
Experimental: To study the adaptive immune response in the form of antibody production, mice were challenged at weeks 0 and 2 with the model immunogenic protein ovalbumin (OVA, 2 mg/kg) as a positive control, pTrMA (10 wt % or 100 mg/mL), or both OVA + pTrMA (2 mg/kg OVA, 10 wt % pTrMA) via intraperitoneal (i.p.) injection. Serum was collected each week, and the immunoglobulin IgG and IgM antibodies specific to OVA or pTrMA were measured by ELISA. For ELISA, OVA or bovine serum albumin (BSA) conjugated with pTrMA (Figure S1) was adsorbed for 16–18 h on microplate wells to capture any antibodies in the serum. Serum from challenged mice and naïve mice as a negative control was measured for antibodies against the challenge antigen, OVA, or the BSA–pTrMA conjugate. Serum from the mice treated with OVA and pTrMA was tested against both OVA and the BSA–pTrMA conjugate. Testing against both antigens measured if the polymer increases the immunogenicity of OVA and, conversely, if the presence of an immunogenic protein, OVA, elicited an immunogenic response to the polymer (Figure S2).
Figure 2 Antibody levels in mice specific to OVA or pTrMA (BSA–pTrMA conjugate) antigens over 3 weeks after i.p. injection of OVA (2 mg/kg), OVA + pTrMA (2 mg/kg, 10 wt %), or pTrMA (10 wt %) at weeks 0 and 2 (n = 5–6). […]

Q: With `OC[C@H]1O[C@H](O[C@H]2O[C@H](CO)[C@@H](O)[C@H](O)[C@H]2O)[C@H](O)[C@@H](O)[C@@H]1O` [trehalose] as the molecule, how does the “melting temperature of insulin (alone or with the named additive)” value [1] read?
A: 88.8 °C

Q: With `[64Cu+2].[Cl-].[Cl-]` [^64CuCl2] as the molecule, how does the “accumulation in the kidneys” value [2] read?
A: 10 % ID/cc

Q: And the “accumulation in the liver” value [2]?
A: 13 % ID/cc

Q: And the “total signal remaining at the 24 h time point” value [3]?
A: 56.3 ± 19.7%

Q: Which “degradation (deamidation at AsnB3) after heating, HPLC” value [4] does the source give for “insulin: Recombinant human insulin purchased from Sigma-Aldrich” here?
A: very little intact insulin remaining

Q: And the “oligomerization state by SEC-MALS” value [5]?
A: no hexameric insulin was present

Q: What about the “intact insulin, % of the original level, after 20 weeks” value ([6]; DPBS pH 7.4, insulin 1 mg/mL final, pTrMA 10.1 kDa 2 mol equiv, 0.22 μm filtered, RP-HPLC, n = 3, mean ± SEM) of the same molecule?
A: 67.4 ± 7.0%

Q: And the “appearance of solution (aggregation) during weeks 20-46” value ([6]; DPBS pH 7.4, visual)?
A: visually cloudy

Q: And the “melting temperature of insulin (alone or with the named additive)” value [1]?
A: 86.6 °C

Q: What about the ThT fluorescence signal [7] of the same molecule?
A: significantly higher (p < 0.01) fluorescence signal than fresh insulin

B1: OVA: model immunogenic protein ovalbumin, positive control (protein, UniProt P01012 2-386, looked up)
Ovalbumin: GSIGAASMEFCFDVFKELKVHHANENIFYCPIAIMSALAMVYLGAKDSTRTQINKVVRFDKLPGFGDSIEAQCGTSVNVHSSLRDILNQITKPNDVYSFSLASRLYAEERYPILPEYLQCVKELYRGGLEPINFQTAADQARELINSWVESQTNGIIRNVLQPSSVDSQTAMVLVNAIVFKGLWEKAFKDEDTQAMPFRVTEQESKPVQMMYQIGLFRVASMASEKMKILELPFASGTMSMLVLLPDEVSGLEQLESIINFEKLTEWTSSNVMEERKIKVYLPRMKMEEKYNLTSVLMAMGITDVFSSSANLSGISSAESLKISQAVHAAHAEINEAGREVVGSAEAGVDAASVSEEFRADHPFLFCIKHIATNAVLFFGRCVSP
Q: Which “OVA-specific IgG response” value [8] does the source give for B1 here?
A: increased in both weeks 2 and 3

Q: What about the “OVA-specific IgM response” value [8] of the same molecule?
A: only elevated in the first week
